Molecular target: wt HBc capsid like particles (Hepatitis B virus core protein) (Human Hepatitis B virus) (UniProt P03147)
Experiment: cryo-EM structure

wt HBc capsid like particles (Hepatitis B virus core protein) (from UniProt P03147) (natural protein)
stoichiometry N: 240

Source: PMC8618838
